Measurements as given in PMC8004985, “Affinity Purification of Angiotensin Converting Enzyme Inhibitory Peptides from Wakame (Undaria Pinnatifida) Using Immobilized ACE on Magnetic Metal Organic Frameworks” (Marine Drugs, 2021).

Legend:
[1] = Enzymatic stability and reusability of free and immobilized ACE; type: biochemical, pig
Procedure: (§1) The ACE was prepared from pig lung and the precipitates were dialyzed and used as a crude enzyme sample for the immobilization of ACE [6]. Twenty-five milligrams of Fe3O4@ZIF-90 nanoparticles were dispersed in 2 mL of crude sample, and incubated with shaking for a certain time at different temperatures to immobilize the ACE. The immobilized ACE (Fe3O4@ZIF-90-ACE) was magnetically recovered and the precipitate was washed several times by 0.1 M phosphate (PBS) buffer until the supernatant was free of protein. Immobilized ACE was quantified using the Bradford method, which used bovine serum albumin (BSA) as the standard. Finally, the obtained immobilized ACE was stored at −80 °C. Enzyme loading capacity was calculated using Equation (1):(1) Enzyme loading capacity(mg⋅g^−1)=(Total protein content-supernatant protein content) /Total mass of Fe3O4@ZIF-90
To determine thermal stability, the immobilized ACE was dispersed in PBS buffer in the absence of the HHL substrate at 20–60 °C for 1 h. […]
The storage stability of immobilized ACE was determined by storing at −20 °C for 30 days. The enzyme activity was then measured, and the relative activity was compared with that of the untreated ACE. The immobilized ACE was evaluated over six successive cycles to investigate the reusability stability; the first-time detection activity was considered as 100%.
(§2) ACE activity was evaluated by measuring the amount of hippuric acid (HA). The assay mixture (0.3 mL) consisted of 130 µL BBS buffer pH 8.3 ([…], containing 0.3 M NaCl), 40 µL HHL (5 mM), and different amounts of the free and immobilized ACE. Incubation was carried out at 37 °C for 10 min and was terminated by addition of HCl (0.1 mL, 1 M). The HA content of the mixture was determined by RP-HPLC (Agilent 1260) at 228 nm with a DAD detector. One unit of ACE enzyme activity (U) was defined as the amount of enzyme catalyzing HHL to generate 1 µM of HA per minute under the experimental conditions.

[2] = Enzyme characterisation of free and immobilized ACE (optimum pH, temperature, Ea, Km, Vmax); type: biochemical, pig
Procedure: as §1, §2

[3] = HHL substrate, Table S2, Lineweaver-Burk

B1: free ACE: free angiotensin-I-converting enzyme (protein, UniProt P12821 30-1306, looked up)
Angiotensin-converting enzyme: LDPGLQPGNFSADEAGAQLFAQSYNSSAEQVLFQSVAASWAHDTNITAENARRQEEAALLSQEFAEAWGQKAKELYEPIWQNFTDPQLRRIIGAVRTLGSANLPLAKRQQYNALLSNMSRIYSTAKVCLPNKTATCWSLDPDLTNILASSRSYAMLLFAWEGWHNAAGIPLKPLYEDFTALSNEAYKQDGFTDTGAYWRSWYNSPTFEDDLEHLYQQLEPLYLNLHAFVRRALHRRYGDRYINLRGPIPAHLLGDMWAQSWENIYDMVVPFPDKPNLDVTSTMLQQGWNATHMFRVAEEFFTSLELSPMPPEFWEGSMLEKPADGREVVCHASAWDFYNRKDFRIKQCTRVTMDQLSTVHHEMGHIQYYLQYKDLPVSLRRGANPGFHEAIGDVLALSVSTPEHLHKIGLLDRVTNDTESDINYLLKMALEKIAFLPFGYLVDQWRWGVFSGRTPPSRYNFDWWYLRTKYQGICPPVTRNETHFDAGAKFHVPNVTPYIRYFVSFVLQFQFHEALCKEAGYEGPLHQCDIYRSTKAGAKLRKVLQAGSSRPWQEVLKDMVGLDALDAQPLLKYFQPVTQWLQEQNQQNGEVLGWPEYQWHPPLPDNYPEGIDLVTDEAEASKFVEEYDRTSQVVWNEYAEANWNYNTNITTETSKILLQKNMQIANHTLKYGTQARKFDVNQLQNTTIKRIIKKVQDLERAALPAQELEEYNKILLDMETTYSVATVCHPNGSCLQLEPDLTNVMATSRKYEDLLWAWEGWRDKAGRAILQFYPKYVELINQAARLNGYVDAGDSWRSMYETPSLEQDLERLFQELQPLYLNLHAYVRRALHRHYGAQHINLEGPIPAHLLGNMWAQTWSNIYDLVVPFPSAPSMDTTEAMLKQGWTPRRMFKEADDFFTSLGLLPVPPEFWNKSMLEKPTDGREVVCHASAWDFYNGKDFRIKQCTTVNLEDLVVAHHEMGHIQYFMQYKDLPVALREGANPGFHEAIGDVLALSVSTPKHLHSLNLLSSEGGSDEHDINFLMKMALDKIAFIPFSYLVDQWRWRVFDGSITKENYNQEWWSLRLKYQGLCPPVPRTQGDFDPGAKFHIPSSVPYIRYFVSFIIQFQFHEALCQAAGHTGPLHKCDIYQSKEAGQRLATAMKLGFSRPWPEAMQLITGQPNMSASAMLSYFKPLLDWLRTENELHGEKLGWPQYNWTPNSARSEGPLPDSGRVSFLGLDLDAQQARVGQWLLLFLGIALLVATLGLSQRLFSIRHRSLHRHSHGPQFGSEVELRHS
activity lost on storage ([1]; 30 days, −20 °C): 45.04% | residual activity (thermal stability) ([1]; after heating at 60 °C for 1 h, PBS buffer, absence of HHL): 22.03% | relative activity (pH stability) ([1]; pH 5.0–10.0 (method: pH 5.0–9.0), 1 h): 37.05% | loss of relative activity between 35°C and 50°C ([2]; 35°C to 50°C): > 40% | Ea (activation energy) ([2]; Arrhenius equation, Fig. S5 (c)): 8.535 kcal/mol | Optimum pH ([2]; Fig. S5 (a)): 8.3 | optimum temperature ([2]; Fig. S5 (b)): 40 °C | Km [2, 3]: 1960 µM | Vmax [2, 3]: 46.296 mmol/min | catalytic efficiency ([2]; Table S2): 23.596
